Publication PMC5928908 (Theranostics, 2018)

Biological target: full-length GST-PRMT5 (UniProt O14744 1-637)
Experiment: pull-down

Chain of full-length GST-PRMT5 (O14744 whole entry): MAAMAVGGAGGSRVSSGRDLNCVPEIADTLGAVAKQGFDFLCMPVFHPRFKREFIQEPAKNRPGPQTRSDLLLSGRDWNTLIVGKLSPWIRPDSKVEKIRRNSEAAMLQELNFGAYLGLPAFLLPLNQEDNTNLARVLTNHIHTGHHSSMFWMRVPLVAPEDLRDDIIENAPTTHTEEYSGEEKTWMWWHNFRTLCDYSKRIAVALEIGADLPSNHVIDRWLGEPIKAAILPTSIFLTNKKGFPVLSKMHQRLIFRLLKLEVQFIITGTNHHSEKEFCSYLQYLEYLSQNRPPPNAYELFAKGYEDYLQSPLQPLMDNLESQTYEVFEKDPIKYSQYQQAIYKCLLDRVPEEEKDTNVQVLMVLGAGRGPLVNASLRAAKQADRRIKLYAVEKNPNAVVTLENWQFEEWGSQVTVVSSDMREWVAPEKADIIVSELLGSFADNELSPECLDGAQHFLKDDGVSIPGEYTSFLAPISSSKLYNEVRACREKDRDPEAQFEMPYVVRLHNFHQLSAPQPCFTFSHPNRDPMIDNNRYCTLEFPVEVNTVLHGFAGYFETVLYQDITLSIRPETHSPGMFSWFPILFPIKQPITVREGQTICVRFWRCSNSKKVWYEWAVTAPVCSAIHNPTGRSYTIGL

B1: full-length His-CAPG (natural protein)
chain: MYTAIPQSGSPFPGSVQDPGLHVWRVEKLKPVPVAQENQGVFFSGDSYLVLHNGPEEVSHLHLWIGQQSSRDEQGACAVLAVHLNTLLGERPVQHREVQGNESDLFMSYFPRGLKYQEGGVESAFHKTSTGAPAAIKKLYQVKGKKNIRATERALNWDSFNTGDCFILDLGQNIFAWCGGKSNILERNKARDLALAIRDSERQGKAQVEIVTDGEEPAEMIQVLGPKPALKEGNPEEDLTADKANAQAAALYKVSDATGQMNLTKVADSSPFALELLISDDCFVLDNGLCGKIYIWKGRKANEKERQAALQVAEGFISRMQYAPNTQVEILPQGHESPIFKQFFKDWK
binding result: binds
